Literature values as cited in paper PMC3090270.

Target: PKA RII alpha D/D (UniProt P12367)
Sequence (P12367 2-45): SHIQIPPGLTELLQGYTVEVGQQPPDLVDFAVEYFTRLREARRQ

Chain of D-AKAP2 AKB (O43572 623-649): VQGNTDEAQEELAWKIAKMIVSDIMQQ

## D-AKAP2 AKB (from UniProt O43572)
  Kd: 2 nM
